We go through 1 molecule from patent publication US12006343B2, “C4BP-based compounds for treating immunological diseases” (FUNDACIO INSTITUT D'INVESTIGACIO BIOMEDICA DE BELLVITGE …, priority 2017, dated 2024).

In test [1] the test system is human monocyte-derived DCs. To be noted: negative control; Olivar et al. 2013; cited from earlier work.
Test [2] deals with human monocyte-derived DCs. The test is described as follows: Immunomodulatory activity over human monocyte-derived DCs: CD83/CD86 surface expression by flow cytometry after LPS maturation. The format is cell-based. The note with it: MoDCs pre-incubated with 5 μg/ml protein, LPS challenge; FIG. 4. For orientation: A flow cytometer gives signals particle by particle.

B1: C4BP(β+): major C4BP α7β1 plus minor C4BP α6β1 isoforms (in complex with ProS) purified from pooled human plasma; negative control (protein, UniProt P04003 49-597; P20851 18-252, looked up)
C4b-binding protein alpha …: NCGPPPTLSFAAPMDITLTETRFKTGTTLKYTCLPGYVRSHSTQTLTCNSDGEWVYNTFCIYKRCRHPGELRNGQVEIKTDLSFGSQIEFSCSEGFFLIGSTTSRCEVQDRGVGWSHPLPQCEIVKCKPPPDIRNGRHSGEENFYAYGFSVTYSCDPRFSLLGHASISCTVENETIGVWRPSPPTCEKITCRKPDVSHGEMVSGFGPIYNYKDTIVFKCQKGFVLRGSSVIHCDADSKWNPSPPACEPNSCINLPDIPHASWETYPRPTKEDVYVVGTVLRYRCHPGYKPTTDEPTTVICQKNLRWTPYQGCEALCCPEPKLNNGEITQHRKSRPANHCVYFYGDEISFSCHETSRFSAICQGDGTWSPRTPSCGDICNFPPKIAHGHYKQSSSYSFFKEEIIYECDKGYILVGQAKLSCSYSHWSAPAPQCKALCRKPELVNGRLSVDKDQYVEPENVTIQCDSGYGVVGPQSITCSGNRTWYPEVPKCEWETPEGCEQVLTGKRLMQCLPNPEDVKMALEVYKLSLEIEQLELQRDSARQSTLDKEL
C4b-binding protein beta chain: SDAEHCPELPPVDNSIFVAKEVEGQILGTYVCIKGYHLVGKKTLFCNASKEWDNTTTECRLGHCPDPVLVNGEFSSSGPVNVSDKITFMCNDHYILKGSNRSQCLEDHTWAPPFPICKSRDCDPPGNPVHGYFEGNNFTLGSTISYYCEDRYYLVGVQEQQCVDGEWSSALPVCKLIQEAPKPECEKALLAFQESKNLCEAMENFMQQLKESGMTMEELKYSLELKKAELKAKLL
modifications: in complex with protein S
notes: major C4BP α7β1 plus minor C4BP α6β1 isoforms (in complex with ProS) purified from pooled human plasma; negative control
B1: the immunomodulatory activity entry in test [1] is “no immunomodulatory activity”. In test [2], the “semi-mature, anti-inflammatory phenotype conferred to LPS-matured MoDCs (immunomodulatory activity)” value was “inactive”.
